Tested on: Human dermal lymphatic endothelial cells (HDLEC)
Test: Bulk RNA-sequencing, differential gene expression and GO analysis
Assay type: cell-based
Description: Human dermal lymphatic endothelial cells (HDLEC) (single donor, juvenile foreskin, Promocell, C-12216, >95% of the cells are CD31 positive and podoplanin positive) were cultured in Endothelial Cell Media MV2 (EGM-MV2, Promocell, C-22121). NIH3T3 were cultured in Dulbecco's modified Eagle's medium (DMEM, Sigma, D6429) supplemented with 10% fetal bovine serum (FBS, Gibco, 10270-06) and 1% penicillin-streptomycin. Endothelial cells were used at passage 3-6 and human fibroblasts were used at passage 4-7. Cells were cultured at 37° C. in a 5% CO2 incubator. Culture medium was changed 3 times a week, and the cells were passaged ⅓. For collecting conditioned media, NIH3T3 were grown in 10 cm dishes, after reaching confluence, medium was removed and the cells were washed once with PBS. NIH3T3 were cultured overnight in 5 mL reduced serum medium optiMEM (Gibco), the medium was then collected and used for experiments. HDLEC were treated with 50% conditioned media/50% MV2-05% FBS. Total RNA from HDLEC transduced or not with Apelin Lentivector were prepared using the RNeasy mini kit (Qiagen 74106). Total RNA were then subjected to ribosomal-RNA depleted RNA sequencing (RNA-Seq) protocol performed by Genewiz company using Illumina HiSeq, PE 2×150 configuration. Sequence reads were trimmed to remove possible adapter sequences and nucleotides with poor quality using Trimmomatic v.0.36. The trimmed reads were mapped to the Homo sapiens GRCh38 reference genome available on ENSEMBL using the STAR aligner v.2.5.2b. The STAR aligner is a splice aligner that detects splice junctions and incorporates them to help align the entire read sequences. BAM files were generated as a result of this step. Unique gene hit counts were calculated by using feature Counts from the Subread package v.1.5.2. The hit counts were summarized and reported using the gene_id feature in annotation file. Only unique reads that fell within exon regions were counted. Distribution of read counts in libraries were examined before and after normalization. The original read counts were normalized to adjust for various factors such as variations of sequencing yield between samples. These normalized read counts were used to accurately determine differentially expressed genes. Data quality assessments were performed to detect any samples that are not representative of their group, and thus, may affect the quality of the analysis. The overall similarity among samples were assessed by the Euclidean distance between samples. This method was used to examine which samples are similar/different to each other and if they fit to the expectation from the experiment design. The shorter the distance, the more closely related the samples are. Samples were then clustered by using the distance. A principal component analysis was also performed to reveal the similarity between samples based on the distance matrix. After extraction of gene hit counts, the gene hit counts table was used for downstream differential expression analysis. Using DESeq2, a comparison of gene expression between Apelin transduced LEC against non-transduced LEC was performed. The Wald test was used to generate p-values and log2 fold changes. […] The global transcriptional change across the two groups compared was visualized by a volcano plot. Each data point in the volcano plot represents a gene. The log2 fold change of each gene is represented on the x-axis and the log10 of its adjusted p-value is on the y-axis.

B1: APELIN: bioactive peptide apelin, endogenous ligand of APJ; applied to HDLEC as conditioned media from LV-Apelin transduced NIH3T3 or by transduction (protein, listed as Homo sapiens)
chain: MNLRLCVQALLLLWLSLTAVCGGSLMPLPDGNGLEDGNVRHLVQPRGSRNGPGPWQGGRRKFRRQRPRLSHKGPMPF
  GO analysis of down regulated genes: no biological process was significantly affected
FDR<0.05
  GO analysis for biological process, upregulated genes: enriched (FDR<0.05) for terms related to extracellular matrix (ECM) remodelling and signalisation
HDLEC, conditioned media
  number of genes up regulated by both apelin and VEGF-C: 43 genes
  number of genes up regulated by both apelin and apelin+VEGF-C: 31 genes
  number of genes up regulated by both apelin, VEGF-C and apelin+VEGF-C: 19 genes
LEC
  expression of E2F8: stimulated
Compared to WT
  expression of genes related to VEGFC maturation (ADAMTS2, CCBE1): improved
Conditioned media vs control NIH3T3 media, p.adj<0.05 and Log2 fold change<-0.5 or >0.5
  number of genes deregulated: 217 genes
p.adj<0.05, Log2 fold change <-0.5
  number of genes down regulated: 123 genes
p.adj<0.05, Log2 fold change >0.5
  number of genes up regulated: 94 genes

Reference: patent US20260041732A1, “USE OF APELIN FOR THE TREATMENT OF LYMPHEDEMA” (INSTITUT NATIONAL DE LA SANTE ET DE LA RECHERCHE MEDICALE, priority 2022, published 2026)
